Results: the supplement of paper PMC10567573

B1: ANKRD40 (parent)
chain: SLRENDFIEIELDRQELTYQELLR
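Note: lentivirally expressed fusions sorted by FACS into six bins by GFP to DsRed ratio, PSI derived from sequencing read proportions per bin multiplied by bin number.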

Variants of: B1
Test: protein stability index of a GFP-peptide fusion (GPS, HEK-293T) (PSI 1-6); higher = more stable
Conditions: c terminus: a fixed tail appended
Variant SLRENDFIEIELDSQELTYQELLR [R14S] has a protein stability index of 3.06. SLRENDFIEIELDTQELTYQELLR [R14T] gave a protein stability index of 3.01. Variant SLRENDFIEIELDDQELTYQELLR [R14D] has a protein stability index of 3.85. SLRENDFIEIELDLQELTYQELLR [R14L] showed a protein stability index of 1.73. In the case of SLRENDFIEIELDPQELTYQELLR [R14P], the protein stability index is reported as 2.86. Variant SLRENDFIEIELDEQELTYQELLR [R14E] has a protein stability index of 3.37. For SLRENDFIEIELDAQELTYQELLR [R14A], the protein stability index was 2.87. With SLRENDFIEIELDYQELTYQELLR [R14Y] the protein stability index was 1.95. With SLRENDFIEIELDKQELTYQELLR [R14K] the protein stability index was 3.31. Work on SLRENDFIEIELDIQELTYQELLR [R14I] yielded a protein stability index of 2.86. SLRENDFIEIELDMQELTYQELLR [R14M] gave a protein stability index of 1.85. SLRENDFIEIELDFQELTYQELLR [R14F] gave a protein stability index of 1.44. For SLRENDFIEIELDHQELTYQELLR [R14H], the protein stability index was 2.97. With SLRENDFIEIELDWQELTYQELLR [R14W] the protein stability index was 1.79. SLRENDFIEIELDGQELTYQELLR [R14G] showed a protein stability index of 3. For SLRENDFIEDELDRQELTYQELLR [I10D], the protein stability index was 4.12. With SLRENDFIEFELDRQELTYQELLR [I10F] the protein stability index was 3.41. For SLRENDFIECELDRQELTYQELLR [I10C], the protein stability index was 3.69. Work on SLRENDFIEWELDRQELTYQELLR [I10W] yielded a protein stability index of 3.19. For SLRENDFIESELDRQELTYQELLR [I10S], the protein stability index was 3.68. For SLRENDFIEPELDRQELTYQELLR [I10P], the protein stability index was 4.24. Work on SLRENDFIEQELDRQELTYQELLR [I10Q] yielded a protein stability index of 4.26. Variant SLRENDFIERELDRQELTYQELLR [I10R] has a protein stability index of 3.53. With SLRENDFIELELDRQELTYQELLR [I10L] the protein stability index was 3.16. For SLRENDFIETELDRQELTYQELLR [I10T], the protein stability index was 4.06. SLRENDFIEMELDRQELTYQELLR [I10M] gave a protein stability index of 3.62. SLRENDFIEYELDRQELTYQELLR [I10Y] gave a protein stability index of 3.33. SLRENDFIEHELDRQELTYQELLR [I10H] gave a protein stability index of 4.34. Variant SLRENDFIEAELDRQELTYQELLR [I10A] has a protein stability index of 4.02. Variant SLRENDFIEVELDRQELTYQELLR [I10V] has a protein stability index of 3.32. Work on SLRENDFIEEELDRQELTYQELLR [I10E] yielded a protein stability index of 4.63. In the case of SLRENDFIENELDRQELTYQELLR [I10N], the protein stability index is reported as 3.75. In the case of SLRENDFIEGELDRQELTYQELLR [I10G], the protein stability index is reported as 3.55. Work on SLRENDFIEKELDRQELTYQELLR [I10K] yielded a protein stability index of 3.48. With SLRENWFIEIELDRQELTYQELLR [D6W] the protein stability index was 2.31. SLRENVFIEIELDRQELTYQELLR [D6V] showed a protein stability index of 1.64. SLRENYFIEIELDRQELTYQELLR [D6Y] gave a protein stability index of 1.9. Work on SLRENDTIEIELDRQELTYQELLR [F7T] yielded a protein stability index of 3.99. Work on SLRENDQIEIELDRQELTYQELLR [F7Q] yielded a protein stability index of 4.17. SLRENDLIEIELDRQELTYQELLR [F7L] showed a protein stability index of 3.79. Variant SLRENDYIEIELDRQELTYQELLR [F7Y] has a protein stability index of 3.54. With SLRENDRIEIELDRQELTYQELLR [F7R] the protein stability index was 3.69. In the case of SLRENDCIEIELDRQELTYQELLR [F7C], the protein stability index is reported as 3.87. Variant SLRENDGIEIELDRQELTYQELLR [F7G] has a protein stability index of 4.18. In the case of SLRENDVIEIELDRQELTYQELLR [F7V], the protein stability index is reported as 3.59. For SLRENDPIEIELDRQELTYQELLR [F7P], the protein stability index was 4.05. With SLRENDEIEIELDRQELTYQELLR [F7E] the protein stability index was 4.46. Variant SLRENDKIEIELDRQELTYQELLR [F7K] has a protein stability index of 4.2. Variant SLRENDAIEIELDRQELTYQELLR [F7A] has a protein stability index of 4.21. SLRENDNIEIELDRQELTYQELLR [F7N] showed a protein stability index of 4.05. SLRENDMIEIELDRQELTYQELLR [F7M] showed a protein stability index of 3.33. Variant SLRENDIIEIELDRQELTYQELLR [F7I] has a protein stability index of 2.91. For SLRENDSIEIELDRQELTYQELLR [F7S], the protein stability index was 4.03. In the case of SLRENDDIEIELDRQELTYQELLR [F7D], the protein stability index is reported as 4.24. In the case of SLRENDHIEIELDRQELTYQELLR [F7H], the protein stability index is reported as 3.96. For SLRENDWIEIELDRQELTYQELLR [F7W], the protein stability index was 3.03. In the case of SLRENDFGEIELDRQELTYQELLR [I8G], the protein stability index is reported as 3.88. SLRENDFKEIELDRQELTYQELLR [I8K] gave a protein stability index of 4.02. Variant SLRENDFNEIELDRQELTYQELLR [I8N] has a protein stability index of 4.1. Variant SLRENDFPEIELDRQELTYQELLR [I8P] has a protein stability index of 3.89. Variant SLRENDFLEIELDRQELTYQELLR [I8L] has a protein stability index of 3.77. With SLRENDFAEIELDRQELTYQELLR [I8A] the protein stability index was 3.83. With SLRENDFSEIELDRQELTYQELLR [I8S] the protein stability index was 3.34. Work on SLRENDFVEIELDRQELTYQELLR [I8V] yielded a protein stability index of 3.62. SLRENDFDEIELDRQELTYQELLR [I8D] showed a protein stability index of 4.56. Work on SLRENDFMEIELDRQELTYQELLR [I8M] yielded a protein stability index of 4.11. For SLRENDFYEIELDRQELTYQELLR [I8Y], the protein stability index was 3.28. SLRENDFEEIELDRQELTYQELLR [I8E] gave a protein stability index of 4.46. For SLRENDFHEIELDRQELTYQELLR [I8H], the protein stability index was 3.99. For SLRENDFQEIELDRQELTYQELLR [I8Q], the protein stability index was 4.23. SLRENDFCEIELDRQELTYQELLR [I8C] gave a protein stability index of 3.57. Variant SLRENDFFEIELDRQELTYQELLR [I8F] has a protein stability index of 2.56. In the case of SLRENDFTEIELDRQELTYQELLR [I8T], the protein stability index is reported as 4.23. Variant SLRENDFWEIELDRQELTYQELLR [I8W] has a protein stability index of 3.26. SLRENDFREIELDRQELTYQELLR [I8R] gave a protein stability index of 3.89. With SLRENDFIEIELDRNELTYQELLR [Q15N] the protein stability index was 3.35. SLRENDFIEIELDRLELTYQELLR [Q15L] gave a protein stability index of 2.78. For SLRENDFIEIELDRKELTYQELLR [Q15K], the protein stability index was 3.29. In the case of SLRENDFIEIELDRMELTYQELLR [Q15M], the protein stability index is reported as 2.25. Variant SLRENDFIEIELDREELTYQELLR [Q15E] has a protein stability index of 3.28. For SLRENDFIEIELDRPELTYQELLR [Q15P], the protein stability index was 2.78. SLRENDFIEIELDRWELTYQELLR [Q15W] showed a protein stability index of 2.37. SLRENDFIEIELDRCELTYQELLR [Q15C] showed a protein stability index of 2.62. For SLRENDFIEIELDRYELTYQELLR [Q15Y], the protein stability index was 2. In the case of SLRENDFIEIELDRRELTYQELLR [Q15R], the protein stability index is reported as 3.41. SLRENDFIEIELDRGELTYQELLR [Q15G] gave a protein stability index of 3.68. Variant SLRENDFIEIELDRFELTYQELLR [Q15F] has a protein stability index of 2.09. With SLRENDFIEIELDRIELTYQELLR [Q15I] the protein stability index was 1.89. Work on SLRENDFIEIELDRVELTYQELLR [Q15V] yielded a protein stability index of 2.44. With SLRENDFIEIELDRHELTYQELLR [Q15H] the protein stability index was 2.75. SLRENDFIEIELDRSELTYQELLR [Q15S] showed a protein stability index of 3.17. Work on SLRENDFIEIELDRDELTYQELLR [Q15D] yielded a protein stability index of 3.59. SLRENDFIEIELDRTELTYQELLR [Q15T] gave a protein stability index of 2.91. Work on SLRENDFIEIELDRAELTYQELLR [Q15A] yielded a protein stability index of 2.63.
